According to patent US20040209326A1:

Tests used:
[1] = molecular target: fibrinogen binding protein encoded from pSE100 (581 aa part of protein FIG of Staphylococcus epidermidis strain HB) (Staphylococcus epidermidis strain HB) (UniProt O70022); test: inhibition of pSE100 phage panning on fibrinogen-coated wells by the soluble ligand; phage eluted at pH 1.8
[2] = molecular target: Vitronectin; test: phage panning on coated protein in microtiter wells; last wash
[3] = molecular target: Transferrin; test: as above
[4] = molecular target: Fibronectin; test: as above
[5] = molecular target: human IgG; test: as above
[6] = molecular target: Bovine serum albumin (fraction V, ria grade) (bovine) (UniProt P02769); test: as above
[7] = molecular target: Lactoferrin; test: as above
[8] = molecular target: Human fibrinogen (human) (UniProt P02671); test: as above
[9] = molecular target: Human serum albumin (human) (UniProt P02768); test: as above
[10] = molecular target: Pepsin; test: as above
[11] = molecular target: Collagen type I; test: as above
[12] = molecular target: Elastin; test: as above
[13] = molecular target: α2macroglobulin; test: as above
[14] = molecular target: IgA; test: as above
[15] = molecular target: Vitronectin; test: phage panning on coated protein in microtiter wells; bound phage eluted at pH 1.8
[16] = molecular target: Transferrin; test: as above
[17] = molecular target: Fibronectin; test: as above
[18] = molecular target: human IgG; test: as above
[19] = molecular target: Bovine serum albumin (fraction V, ria grade) (bovine) (UniProt P02769); test: as above
[20] = molecular target: Lactoferrin; test: as above
[21] = molecular target: Human fibrinogen (human) (UniProt P02671); test: as above
[22] = molecular target: Human serum albumin (human) (UniProt P02768); test: as above
[23] = molecular target: Pepsin; test: as above
[24] = molecular target: Collagen type I; test: as above
[25] = molecular target: Elastin; test: as above
[26] = molecular target: α2macroglobulin; test: as above
[27] = molecular target: IgA; test: as above

UniProt O70022, sequence (O70022 75-656): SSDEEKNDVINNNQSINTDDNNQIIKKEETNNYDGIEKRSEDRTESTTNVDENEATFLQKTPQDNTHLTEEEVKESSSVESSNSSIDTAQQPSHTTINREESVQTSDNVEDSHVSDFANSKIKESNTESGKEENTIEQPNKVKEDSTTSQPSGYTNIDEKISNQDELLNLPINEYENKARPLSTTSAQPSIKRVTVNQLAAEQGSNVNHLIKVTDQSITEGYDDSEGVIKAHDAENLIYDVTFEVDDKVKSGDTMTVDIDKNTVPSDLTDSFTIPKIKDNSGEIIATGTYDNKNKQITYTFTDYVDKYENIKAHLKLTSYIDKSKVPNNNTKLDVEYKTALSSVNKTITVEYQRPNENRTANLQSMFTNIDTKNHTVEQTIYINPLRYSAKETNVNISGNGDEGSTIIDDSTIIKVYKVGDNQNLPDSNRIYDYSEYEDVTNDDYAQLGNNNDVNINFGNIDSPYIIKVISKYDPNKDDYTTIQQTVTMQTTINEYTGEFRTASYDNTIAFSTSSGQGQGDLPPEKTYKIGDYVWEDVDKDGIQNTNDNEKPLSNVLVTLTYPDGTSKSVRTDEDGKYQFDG
UniProt P02671, sequence (P02671 other isoform, or with tags, fused parts or gaps limits assumed, chain 1 of 3): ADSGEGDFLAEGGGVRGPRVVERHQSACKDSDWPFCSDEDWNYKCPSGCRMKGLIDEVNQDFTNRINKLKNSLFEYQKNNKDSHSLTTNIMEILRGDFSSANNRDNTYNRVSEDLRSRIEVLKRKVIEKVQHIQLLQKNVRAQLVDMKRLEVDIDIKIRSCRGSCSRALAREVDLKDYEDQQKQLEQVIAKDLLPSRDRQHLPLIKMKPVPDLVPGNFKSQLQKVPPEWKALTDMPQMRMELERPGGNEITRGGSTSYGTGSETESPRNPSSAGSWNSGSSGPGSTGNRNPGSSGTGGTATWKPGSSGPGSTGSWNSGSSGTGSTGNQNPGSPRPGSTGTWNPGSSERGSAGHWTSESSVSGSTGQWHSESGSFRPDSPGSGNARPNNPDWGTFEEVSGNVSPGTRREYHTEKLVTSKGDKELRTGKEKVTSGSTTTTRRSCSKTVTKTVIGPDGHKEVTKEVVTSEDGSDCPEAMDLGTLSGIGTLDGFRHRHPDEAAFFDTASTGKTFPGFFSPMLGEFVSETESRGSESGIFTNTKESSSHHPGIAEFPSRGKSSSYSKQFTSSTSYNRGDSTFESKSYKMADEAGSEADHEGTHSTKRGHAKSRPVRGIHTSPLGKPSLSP
UniProt P02671, sequence (P02675 31-491 limits assumed, chain 2 of 3, further chain): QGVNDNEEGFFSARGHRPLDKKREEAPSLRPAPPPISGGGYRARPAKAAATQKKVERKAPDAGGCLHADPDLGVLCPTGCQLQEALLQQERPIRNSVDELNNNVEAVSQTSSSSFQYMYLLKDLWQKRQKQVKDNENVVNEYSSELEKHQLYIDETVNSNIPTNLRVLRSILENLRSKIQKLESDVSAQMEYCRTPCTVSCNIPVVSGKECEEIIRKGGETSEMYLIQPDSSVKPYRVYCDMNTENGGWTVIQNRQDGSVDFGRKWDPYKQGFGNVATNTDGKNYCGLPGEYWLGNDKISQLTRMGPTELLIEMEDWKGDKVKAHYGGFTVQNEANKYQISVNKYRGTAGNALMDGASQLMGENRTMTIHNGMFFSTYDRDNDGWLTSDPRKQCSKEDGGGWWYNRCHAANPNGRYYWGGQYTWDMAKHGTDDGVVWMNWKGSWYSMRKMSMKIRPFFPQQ
UniProt P02671, sequence (P02679 other isoform, or with tags, fused parts or gaps limits assumed, chain 3 of 3, further chain): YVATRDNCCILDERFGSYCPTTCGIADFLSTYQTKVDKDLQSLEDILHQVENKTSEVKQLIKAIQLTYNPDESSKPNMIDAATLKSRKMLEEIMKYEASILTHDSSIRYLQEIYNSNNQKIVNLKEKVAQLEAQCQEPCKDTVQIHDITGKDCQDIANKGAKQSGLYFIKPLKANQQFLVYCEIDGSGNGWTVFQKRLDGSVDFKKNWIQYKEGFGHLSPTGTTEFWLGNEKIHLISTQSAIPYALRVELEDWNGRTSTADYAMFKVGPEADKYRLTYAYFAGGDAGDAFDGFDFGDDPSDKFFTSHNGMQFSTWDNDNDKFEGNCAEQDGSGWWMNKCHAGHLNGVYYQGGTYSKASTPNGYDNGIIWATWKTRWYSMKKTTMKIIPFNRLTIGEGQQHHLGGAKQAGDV
UniProt P02769, sequence (P02769 25-607 limits assumed): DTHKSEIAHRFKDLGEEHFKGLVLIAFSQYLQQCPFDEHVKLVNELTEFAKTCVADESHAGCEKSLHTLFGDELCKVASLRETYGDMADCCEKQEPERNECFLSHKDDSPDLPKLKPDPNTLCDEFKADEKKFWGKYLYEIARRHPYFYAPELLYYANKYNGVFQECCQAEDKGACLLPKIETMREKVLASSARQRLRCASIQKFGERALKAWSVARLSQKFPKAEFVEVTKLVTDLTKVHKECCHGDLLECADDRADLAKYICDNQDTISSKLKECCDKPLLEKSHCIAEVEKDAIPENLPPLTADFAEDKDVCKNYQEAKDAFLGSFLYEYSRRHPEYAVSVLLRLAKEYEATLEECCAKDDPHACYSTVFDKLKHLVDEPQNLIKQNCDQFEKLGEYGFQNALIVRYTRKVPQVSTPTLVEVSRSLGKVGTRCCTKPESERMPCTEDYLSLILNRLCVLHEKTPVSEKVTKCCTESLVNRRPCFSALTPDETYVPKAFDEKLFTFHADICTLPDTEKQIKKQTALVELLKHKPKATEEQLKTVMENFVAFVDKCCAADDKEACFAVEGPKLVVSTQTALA

How did the eluted phage titre at 0 µg/ml soluble ligand [1] turn out when human IgG (antibody) was run?
Its eluted phage titre at 0 µg/ml soluble ligand is 76000 cfu/ml.

And the eluted phage titre at 0.1 µg/ml soluble ligand [1]?
The eluted phage titre at 0.1 µg/ml soluble ligand was 62000 cfu/ml.

What about the eluted phage titre at 1 µg/ml soluble ligand [1] of the same substance?
Its eluted phage titre at 1 µg/ml soluble ligand is 90000 cfu/ml.

What about the eluted phage titre at 10 µg/ml soluble ligand [1] of the same substance?
Its eluted phage titre at 10 µg/ml soluble ligand is 78000 cfu/ml.

And the eluted phage titre at 100 µg/ml soluble ligand [1]?
The eluted phage titre at 100 µg/ml soluble ligand was 73000 cfu/ml.

What about the eluted phage titre at 1000 µg/ml soluble ligand [1] of the same substance?
Its eluted phage titre at 1000 µg/ml soluble ligand is 76000 cfu/ml.

Which phage titre in the last wash [2] does the source give for “fibrinogen binding protein encoded from pSE100 (581 aa part of protein FIG of Staphylococcus epidermidis strain HB) (from UniProt O70022 75-656)” here?
Its phage titre in the last wash is < 100 cfu/ml.

What about the phage titre in the last wash [3] of the same substance?
Its phage titre in the last wash is 200 cfu/ml.

And the phage titre in the last wash [4]?
Its phage titre in the last wash is 600 cfu/ml.

And the phage titre in the last wash [5]?
Its phage titre in the last wash is 400 cfu/ml.

What about the phage titre in the last wash [6] of the same substance?
The phage titre in the last wash was < 100 cfu/ml.

What about the phage titre in the last wash [7] of the same substance?
Its phage titre in the last wash is 600 cfu/ml.

What about the phage titre in the last wash [8] of the same substance?
The phage titre in the last wash was 11000 cfu/ml.

And the phage titre in the last wash [9]?
Its phage titre in the last wash is 800 cfu/ml.

What about the phage titre in the last wash [10] of the same substance?
Its phage titre in the last wash is 180 cfu/ml.

And the phage titre in the last wash [11]?
Its phage titre in the last wash is 600 cfu/ml.

And the phage titre in the last wash [12]?
Its phage titre in the last wash is 800 cfu/ml.

What about the phage titre in the last wash [13] of the same substance?
Its phage titre in the last wash is 200 cfu/ml.

And the phage titre in the last wash [14]?
The phage titre in the last wash was 600 cfu/ml.

And the phage titre in Eluate pH 1.8 [15]?
The phage titre in Eluate pH 1.8 was 2200 cfu/ml.

What about the phage titre in Eluate pH 1.8 [16] of the same substance?
Its phage titre in Eluate pH 1.8 is 2400 cfu/ml.

And the phage titre in Eluate pH 1.8 [17]?
Its phage titre in Eluate pH 1.8 is 24000 cfu/ml.

What about the phage titre in Eluate pH 1.8 [18] of the same substance?
Its phage titre in Eluate pH 1.8 is 4400 cfu/ml.

And the phage titre in Eluate pH 1.8 [19]?
Its phage titre in Eluate pH 1.8 is 800 cfu/ml.

And the phage titre in Eluate pH 1.8 [20]?
The phage titre in Eluate pH 1.8 was 8200 cfu/ml.

What about the phage titre in Eluate pH 1.8 [21] of the same substance?
The phage titre in Eluate pH 1.8 was 1.4e+07 cfu/ml.

What about the phage titre in Eluate pH 1.8 [22] of the same substance?
Its phage titre in Eluate pH 1.8 is 2200 cfu/ml.

And the phage titre in Eluate pH 1.8 [23]?
Its phage titre in Eluate pH 1.8 is 37000 cfu/ml.

And the phage titre in Eluate pH 1.8 [24]?
The phage titre in Eluate pH 1.8 was 1200 cfu/ml.

What about the phage titre in Eluate pH 1.8 [25] of the same substance?
The phage titre in Eluate pH 1.8 was 5200 cfu/ml.

What about the phage titre in Eluate pH 1.8 [26] of the same substance?
Its phage titre in Eluate pH 1.8 is 2000 cfu/ml.

And the phage titre in Eluate pH 1.8 [27]?
Its phage titre in Eluate pH 1.8 is 68000 cfu/ml.

With “Human fibrinogen (from UniProt P02671 20-644; P02675 31-491; P02679 27-437)” as the substance, how does the eluted phage titre at 0 µg/ml soluble ligand [1] read?
Its eluted phage titre at 0 µg/ml soluble ligand is 76000 cfu/ml.

And the eluted phage titre at 0.1 µg/ml soluble ligand [1]?
The eluted phage titre at 0.1 µg/ml soluble ligand was 44000 cfu/ml.

What about the eluted phage titre at 1 µg/ml soluble ligand [1] of the same substance?
The eluted phage titre at 1 µg/ml soluble ligand was 36000 cfu/ml.

And the eluted phage titre at 10 µg/ml soluble ligand [1]?
The eluted phage titre at 10 µg/ml soluble ligand was 15000 cfu/ml.

And the eluted phage titre at 100 µg/ml soluble ligand [1]?
Its eluted phage titre at 100 µg/ml soluble ligand is 3800 cfu/ml.

And the eluted phage titre at 1000 µg/ml soluble ligand [1]?
Its eluted phage titre at 1000 µg/ml soluble ligand is 300 cfu/ml.

“Bovine serum albumin (fraction V, ria grade) (from UniProt P02769 25-607)” was tested. Which eluted phage titre at 0 µg/ml soluble ligand [1] did it give?
The eluted phage titre at 0 µg/ml soluble ligand was 76000 cfu/ml.

What about the eluted phage titre at 0.1 µg/ml soluble ligand [1] of the same substance?
The eluted phage titre at 0.1 µg/ml soluble ligand was 70000 cfu/ml.

What about the eluted phage titre at 1 µg/ml soluble ligand [1] of the same substance?
Its eluted phage titre at 1 µg/ml soluble ligand is 93000 cfu/ml.

What about the eluted phage titre at 10 µg/ml soluble ligand [1] of the same substance?
The eluted phage titre at 10 µg/ml soluble ligand was 63000 cfu/ml.

What about the eluted phage titre at 100 µg/ml soluble ligand [1] of the same substance?
Its eluted phage titre at 100 µg/ml soluble ligand is 64000 cfu/ml.

And the eluted phage titre at 1000 µg/ml soluble ligand [1]?
The eluted phage titre at 1000 µg/ml soluble ligand was 69000 cfu/ml.
